Laboratory results: article PMC3760765, “A Meiosis-Specific Form of the APC/C Promotes the Oocyte-to-Embryo Transition by Decreasing Levels of the Polo Kinase Inhibitor Matrimony” (PLoS Biology, 2013)

T1: GST-tagged Mtrm (Matrimony) (Drosophila melanogaster, UniProt Q23973 1-217)
T1 construct: mtrm cDNA LD47919 cloned into pGEX6p-1; also called GST-Mtrm; source: expressed and purified from bacteria
T1 sequence (looked up): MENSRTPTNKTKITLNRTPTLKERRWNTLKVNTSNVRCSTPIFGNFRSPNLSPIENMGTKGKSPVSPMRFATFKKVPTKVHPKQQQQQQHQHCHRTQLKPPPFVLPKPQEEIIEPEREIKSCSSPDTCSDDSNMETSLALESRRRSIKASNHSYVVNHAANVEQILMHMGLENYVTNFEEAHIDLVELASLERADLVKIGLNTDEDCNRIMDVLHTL

T2: GST-CycA (Cyclin A) (UniProt P14785 1-491)
T2 construct: Cyclin A; construct not described in the methods
T2 sequence (looked up): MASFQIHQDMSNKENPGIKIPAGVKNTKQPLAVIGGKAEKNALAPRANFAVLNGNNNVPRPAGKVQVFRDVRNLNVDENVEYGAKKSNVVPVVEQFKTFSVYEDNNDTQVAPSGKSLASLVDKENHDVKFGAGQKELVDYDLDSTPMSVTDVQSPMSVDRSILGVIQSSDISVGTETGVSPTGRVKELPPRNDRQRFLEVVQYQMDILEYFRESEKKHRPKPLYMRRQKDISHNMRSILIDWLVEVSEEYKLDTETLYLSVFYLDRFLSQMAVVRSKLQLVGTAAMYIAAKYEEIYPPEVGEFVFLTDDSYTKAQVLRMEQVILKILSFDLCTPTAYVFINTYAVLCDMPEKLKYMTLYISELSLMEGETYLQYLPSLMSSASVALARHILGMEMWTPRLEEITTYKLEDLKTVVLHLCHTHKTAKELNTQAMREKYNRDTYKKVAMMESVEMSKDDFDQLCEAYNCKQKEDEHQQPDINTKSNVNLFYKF


Tests used:
[1] = target: T1, GST-tagged Mtrm (Matrimony); test: pull-down; purified GST-tagged protein on beads incubated with 5 µl in vitro translation reaction (reticulocyte lysate) in 500 µl IP buffer, 2 h at 4°C; 3 washes; Western blot with anti-Myc 9E10; settings: one partner purified
[2] = target: T2, GST-CycA (Cyclin A); test: as above; settings: one partner purified

Row | Binder | fold binding to GST-Mtrm against 6×Myc-CortΔWD40 [1] | fold binding to GST-CycA against binding to GST-Mtrm [2]
1 | 6×Myc-Cortex (full length), in vitro translated (natural protein, Drosophila melanogaster, UniProt Q960N3 1-483, looked up, 6×myc-cort cDNA cloned into pOT2; also called Myc-tagged Cort; source: in vitro translated (TnT T7 Coupled Reticulocyte Lysate System, rabbit reticulocyte lysate)) MFVEMSVCDSPNKNSKLDKKSLTPFKKVRRKNWKQEAAYKSDTSKGQEVSYVGERFIPNRFERENIEFNLKYIGKRKERDILETGVTLTASYWRQSGFISNINRTFGIGERRLFQFSSQQGTRSRVVDNDSADSDWPCNPRARPYAIQNATHEMPGICSPVDYNMMDWSSGGMVAMSSGQDVMLWRNLDESTMVFSVESPTSLKYSPDGKHLAIGCMDRNYPVLDLWEVRSPTEFLVSYRKLFFKSMGYISCIEWSHDGKEVICGTQCGVIIVLAMPTLNTLMQLREHRHTVKKMKFAPTHKYFASSDTDGKIFIFDAVLKVRLLKLDGRSIVFDWHPWTGEDLAVAERSPASIFIFNIPRRQFVASYRRRDDRIVIKTLTYSKITGELLVNVIRRDDADLAVCEILVLASLNRVVDLMSHQDRGTLFLMWNPDGTKIATGGLDDTFSLWNFFPTYKREAILRKQEQKAKDKCSSLSLYKGIR | 5.8 fold | 
2 | 6×Myc-Fzy/Cdc20, in vitro translated (natural protein, Drosophila melanogaster, UniProt Q24044 1-526, looked up, 6×myc-fzy/cdc20 cDNA cloned into pOT2; also called Myc-tagged Fzy/Cdc20; Fizzy; source: in vitro translated (TnT T7 Coupled Reticulocyte Lysate System, rabbit reticulocyte lysate)) MSQFNFVSDLQNALIMDGETRGPAPRWKKKLEASLNGSVNTTRSVLSVSYNTSFSGVQAPTKTPGKSSEGKTKKSNTTPSKTPGGGDRFIPNRAATNFELAHFLVNKDSGDKSDEENDKATSSNSNESNVQASAHKGDRQKLISEVAQVGDSKGGRILCYQNKAPAAPETHNNPLKVVYSIKTPISTKSGSRYIPTTSERILDAPDFINDYYLNLMDWSADNIVAVALGSCVYLWNAQTGNIEQLTEFEEGDYAGSLSWIQEGQILAIGNSTGAVELWDCSKVKRLRVMDGHSARVGSLAWNSFLVSSGSRDGTIVHHDVRAREHKLSTLSGHTQEVCGLKWSTDFKYLASGGNDNLVNVWSAASGGVGTATDPLHKFNDHQAAVRALAWCPWQPSTLASGGGTADRCIKFWNVNNGTLMKSVDSKSQVCSLLFSRHYKELISAHGFANNQLTIWKYPTMVKQADLTGHTSRVLQMAMSPDGSTVISAGADETLRLWNCFAPDPLASKKAVSTSKGKQSVFRQSIR |  | 155 fold
